Measured values as given in publication doi:10.1101/2025.03.23.644798 (bioRxiv, 2025).

Biological target: the molecule itself
Assay: native gel or EMSA

B1: wild-type D-amino acid oxidase from Schizosaccharomyces pombe (enzyme, UniProt Q9Y7N4 1-348, looked up)
chain: MTKENKPRDIVIVGAGVIGLTTAWILSDLGLAPRIKVIAKYTPEDRSVEYTSPWAGANFCSISATDDNALRWDKITYHRFAYLAKTRPEAGIRFADLRELWEYEPKHDKIRSWNTYVRDFKVIPEKDLPGECIYGHKATTFLINAPHYLNYMYKLLIEAGVEFEKKELSHIKETVEETPEASVVFNCTGLWASKLGGVEDPDVYPTRGHVVLVKAPHVTETRILNGKNSDTYIIPRPLNGGVICGGFMQPGNWDREIHPEDTLDILKRTSALMPELFHGKGPEGAEIIQECVGFRPSRKGGARVELDVVPGTSVPLVHDYGASGTGYQAGYGMALDSVMLALPKIKLA
binding result: binds
